How the values were obtained:
Assay in all cases: cell-based or functional assay
[1] = target: T1, CXCL9
T1 sequence (Q07325 23-125, species assumed, looked up): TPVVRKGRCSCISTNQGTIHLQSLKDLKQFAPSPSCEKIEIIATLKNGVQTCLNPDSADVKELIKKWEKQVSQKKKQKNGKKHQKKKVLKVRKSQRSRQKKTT

[2] = target: T2, CXCL11
T2 sequence (O14625 22-94, species assumed, looked up): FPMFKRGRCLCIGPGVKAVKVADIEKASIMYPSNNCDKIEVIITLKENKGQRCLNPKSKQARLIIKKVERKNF

[3] = target: CXCL10

Measured: in vitro enzymatic cleavage; T cell migration assay

Sequence of MMP9 (Example 10, in vitro enzymatic analyses) (enzyme) (P41245 108-730): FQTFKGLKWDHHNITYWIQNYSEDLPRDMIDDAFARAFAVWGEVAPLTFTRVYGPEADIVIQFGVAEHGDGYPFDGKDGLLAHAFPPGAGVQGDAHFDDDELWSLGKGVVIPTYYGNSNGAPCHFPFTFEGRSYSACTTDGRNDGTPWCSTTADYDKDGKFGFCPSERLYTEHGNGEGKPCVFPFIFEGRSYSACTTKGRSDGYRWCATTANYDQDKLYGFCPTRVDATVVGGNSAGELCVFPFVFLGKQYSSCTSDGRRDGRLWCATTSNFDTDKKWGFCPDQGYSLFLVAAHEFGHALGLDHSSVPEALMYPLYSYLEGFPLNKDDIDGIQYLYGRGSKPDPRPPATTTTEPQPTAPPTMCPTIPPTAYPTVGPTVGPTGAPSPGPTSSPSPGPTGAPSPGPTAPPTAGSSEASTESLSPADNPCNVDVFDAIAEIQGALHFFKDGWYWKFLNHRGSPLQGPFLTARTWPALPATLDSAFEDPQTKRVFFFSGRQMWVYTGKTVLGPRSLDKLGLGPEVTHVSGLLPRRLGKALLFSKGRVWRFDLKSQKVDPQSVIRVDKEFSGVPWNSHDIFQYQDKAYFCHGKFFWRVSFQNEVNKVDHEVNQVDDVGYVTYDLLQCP
Sequence of CXCL10 (P02778 22-98): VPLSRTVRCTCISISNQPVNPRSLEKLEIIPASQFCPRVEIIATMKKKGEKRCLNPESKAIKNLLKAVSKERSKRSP

MMP9 (Example 10, in vitro enzymatic analyses) (enzyme)
< 88%: all assays above
